In this test the target is K63 diubiquitin (K63 diUb). The test is described as follows: SPR, p62 immobilised on CM5 chip. Background: In SPR one partner is held on a chip, and binding of the other changes the refractive index at the surface.

For “p62/SQSTM1 (sequestosome-1) 320-436 (from UniProt Q13501) p62 2Pi (pS403/pS407)”, the KD entry reads like this: (reference: p62S403Pi (monophosphorylated), sites S407) “stronger; reference 4.4 ± 0.4 μM”; (reference: p62S407Pi (monophosphorylated), sites S403) “stronger; reference 14.8 ± 1.0 μM”.
For the substance “p62/SQSTM1 (sequestosome-1) 320-436 (from UniProt Q13501) semisynthetic p62 2Pi (pS403/pS407)”, the KD entry (reference: recombinant p62 WT, unphosphorylated, sites S403,S407) is “stronger; reference 167.9 ± 13.0 μM”.

(Values after paper PMC5636944.)
